For test [1], the target named is T1, mouse CLDN-5 protein (mouse, UniProt O54942 1-218).
T1 construct: Expressed on cells by retrovirus; also called mCLDN-5; MDCKII/mCLDN-5
T1 sequence: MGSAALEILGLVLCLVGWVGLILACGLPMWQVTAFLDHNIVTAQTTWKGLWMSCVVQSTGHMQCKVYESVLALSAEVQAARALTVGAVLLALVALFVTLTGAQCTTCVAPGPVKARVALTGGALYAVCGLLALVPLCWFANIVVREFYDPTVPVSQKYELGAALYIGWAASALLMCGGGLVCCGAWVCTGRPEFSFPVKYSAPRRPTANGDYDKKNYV
Kind of test: FACS, hybridoma supernatant on CLDN-expressing cells. An excerpt:
(§1) By the insertion of a DNA fragment consisting of an hCLDN-1 protein (SEQ ID NO: 30)-encoding sequence, an hCLDN-2 protein (SEQ ID NO: 31)-encoding sequence, an hCLDN-3 protein (SEQ ID NO 32)-encoding sequence, an hCLDN-4 protein (SEQ ID NO: 33)-encoding sequence, an hCLDN-6 protein (SEQ ID NO: 34)-encoding sequence, an hCLDN-7 protein (SEQ ID NO: 35)-encoding sequence, an mCLDN-1 protein (SEQ ID NO: 37)-encoding sequence, an mCLDN-2 protein (SEQ ID NO: 38)-encoding sequence, an mCLDN-3 protein (SEQ ID NO: 39)—encoding sequence, or an mCLDN-5 protein (SEQ ID NO: 29)-encoding sequence, vectors for preparing a retrovirus were obtained. By using these vectors and the vector for preparing a retrovirus prepared in Example 1-2), various CLDN protein-expressing cells were prepared. By using these cells and a culture supernatant of hybridomas producing antibodies as primary antibodies, FACS assay was performed by the following method.
(§2) The obtained CLDN-expressing cells were seeded in a 10 cm dish, and on the next day, the cells were collected. The primary antibodies (100 μL) were added to the obtained 1.0×10⁵ cells and allowed to react for 1 hour at 4° C. At this time, a mixed solution of a C-CPE mutant (C-CPEmt) and a mouse anti-His tag antibody (Abeam) used in Non-Patent Literature 3 was used as positive control. The cells were washed three times with 0.2% BSA-PBS, then mixed with 100 μL of a secondary antibody solution (FITC conjugated goat anti-mouse IgG or anti-rat IgG (Jackson Immune Research, 115-095-003 or 112-095-003) 400x diluted with 1% BSA-PBS, and allowed to react for 1 hour at 4° C. The cells were washed with 0.2% BSA-TBS and then analyzed using FACS caliber (BD Bioscience).
(A flow cytometer gives signals particle by particle.)

Test [2] concerns the target T2, mCLDN-1 protein (mouse, UniProt O88551 1-211).
T2 construct: Expressed on cells by retrovirus; also called mouse Claudin-1 protein
T2 sequence: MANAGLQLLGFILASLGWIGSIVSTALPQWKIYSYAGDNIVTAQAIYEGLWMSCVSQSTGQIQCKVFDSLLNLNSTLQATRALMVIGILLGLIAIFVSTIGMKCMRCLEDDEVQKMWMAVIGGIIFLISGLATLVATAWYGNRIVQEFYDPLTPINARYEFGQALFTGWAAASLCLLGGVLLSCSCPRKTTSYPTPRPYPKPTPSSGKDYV
The test is described as above.
From the text: as §1, §2

For test [3], the target named is T3, mCLDN-2 protein (mouse, UniProt O88552 1-230).
T3 construct: Expressed on cells by retrovirus; also called mouse Claudin-2 protein
T3 sequence: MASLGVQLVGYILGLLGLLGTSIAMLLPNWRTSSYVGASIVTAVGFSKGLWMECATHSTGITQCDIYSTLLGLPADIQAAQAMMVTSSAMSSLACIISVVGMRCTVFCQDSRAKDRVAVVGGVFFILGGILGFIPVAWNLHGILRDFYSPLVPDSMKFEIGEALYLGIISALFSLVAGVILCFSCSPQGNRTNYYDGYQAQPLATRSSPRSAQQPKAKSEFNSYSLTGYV
Described as above.
From the text: as §1, §2

Test [4] addresses T4, mCLDN-3 protein (mouse, UniProt Q9Z0G9 1-219).
T4 construct: Expressed on cells by retrovirus; also called mouse Claudin-3 protein
T4 sequence: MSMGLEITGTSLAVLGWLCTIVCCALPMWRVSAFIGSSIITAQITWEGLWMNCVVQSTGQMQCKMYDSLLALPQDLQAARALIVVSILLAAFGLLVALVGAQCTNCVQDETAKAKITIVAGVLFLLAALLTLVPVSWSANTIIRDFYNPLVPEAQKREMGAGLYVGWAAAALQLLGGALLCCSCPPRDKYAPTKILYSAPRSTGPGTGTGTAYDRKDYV
The description is as above.
From the text: as §1, §2

In test [5] the target is T5, wild-type human CLDN-5 protein (human, UniProt O00501 1-218).
T5 construct: Four-transmembrane tight junction protein expressed by retrovirus on HT-1080 (or MDCKII) cells; also called hCLDN-5; human Claudin-5 protein
T5 sequence: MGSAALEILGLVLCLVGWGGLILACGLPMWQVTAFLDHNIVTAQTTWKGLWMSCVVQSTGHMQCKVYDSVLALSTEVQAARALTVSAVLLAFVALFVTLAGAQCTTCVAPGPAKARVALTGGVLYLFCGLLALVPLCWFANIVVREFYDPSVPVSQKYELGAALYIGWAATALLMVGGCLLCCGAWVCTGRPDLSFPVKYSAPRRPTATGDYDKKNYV
Kind of test: FACS saturation binding on HT-1080/hCLDN-5, one-site fit; Lot 1. As for the experimental part: as §2
(§3) By using HT-1080/hCLDN-5 and 100 μL of the anti-CLDN-5 antibody at each concentration diluted with 1.0% BSA-PBS, FACS assay was performed in the same manner as in Example 3-1). […] At this time, the equation of saturation binding-one site-specific binding of Graph Pad prism 7 (Graph Pad Software) was used.

In test [6] the target is T5, wild-type human CLDN-5 protein. As to the kind of experiment: FACS saturation binding on HT-1080/hCLDN-5, one-site fit; Lot 2. As for the experimental part:
as §2, §3

Test [7] addresses T6, crab-eating macaque CLDN-5 protein (crab-eating macaque, UniProt O00501 1-218 (human entry)).
T6 construct: Expressed on cells by retrovirus; also called cCLDN-5; MDCKII/cCLDN-5
T6 chain: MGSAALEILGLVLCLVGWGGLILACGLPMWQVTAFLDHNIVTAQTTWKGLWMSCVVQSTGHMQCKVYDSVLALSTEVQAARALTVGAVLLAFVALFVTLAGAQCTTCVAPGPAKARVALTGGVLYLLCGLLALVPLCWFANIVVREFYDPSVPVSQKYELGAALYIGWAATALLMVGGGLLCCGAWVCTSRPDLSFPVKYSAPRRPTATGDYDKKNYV
Kind of test: FACS on CLDN-5-expressing cells, antibody 5 µg/mL. As for the experimental part:
as §2
In the same manner as in Example 1-2), a DNA fragment consisting of a cCLDN-5 protein (SEQ ID NO: 28)-encoding sequence or an mCLDN-5 protein (SEQ ID NO: 29)-encoding sequence was inserted into a pCX4pur vector, thereby obtaining vectors for preparing a retrovirus. By using these vectors with the vector for preparing a retrovirus prepared in Example 1-2), various animal species CLDN-5 protein-expressing cells were prepared. By using these cells and the antibodies (antibody concentration: 5 μg/mL, as primary antibody), FACS assay was performed in the same manner as in 3-1).

For orientation: Kd means the equilibrium constant for the complex coming apart. The low end stands for tighter binding, the high end for weaker binding.

B1: rat anti-CLDN-5 antibody R2 (antibody, rat IgG2a, V domains shown)
VH: QVQLKESGPGLVQPSQTLSLTCTVSGLSLIRNSVSWIRQPPGKGLEWMGVIWSNGGTEYNSTVKSRLSISRDTSKNQVFLKMNSLQTEDSAMFFCARTPDGYYPYFDYWGQGVMVTVSS
VL: DIVLTQSPATLSVTPGESVSLSCRASQGISTSIHWYQQKSNESPRLLIRYASQSISRIPSRFSGSGSGTDFTLTINGVESEDLSVYYCQQSYNLPLTFGSGTKLEI
notes: Hybridoma monoclonal; also called antibody F
On to B1, for which the binding result in test [1], in test [2], in test [3] and in test [4] was “no binding” each time. Further, the values for the Kd in test [5] and in test [6] were 20.1 nM and 20.7 nM, respectively.

B2: mouse anti-CLDN-5 antibody M48 (antibody, mouse IgG3, V domains shown)
VH: QAYLQQSGAELVRPGASVKMSCKASGYTFTSYNMHWVKKTRRQGLEWIGAISPGNGNTSYNQKFKGKATLTVDKSSSTAYMQLSSLTSEDSAVYFCARDDGYYGALDYWGQGTSVTVSS
VL: DIVLTQSPATLSVTPGESVSLSCRASQGISTSIHWYQQKSNESPRLLIRYASQSISRIPSRFSGSGSGTDFTLTINGVESEDLSVYYCQQSYNLPLTFGSGTKLEI
notes: Hybridoma monoclonal; also called antibody E
On to B2, for which the binding result in test [2], in test [3] and in test [4] was “no binding” throughout. In addition, the Kd in test [5] was 29.1 nM; in test [6], 8.47 nM.

B3: mouse anti-CLDN-5 antibody M3 (antibody, mouse IgG2b, V domains shown)
VH: EVQLQQSGPELVKPGASVKISCKASGYSFTGYYMNWVKQSPEKSLEWIGDINPSTGGATYNQKFKAKATLTVDKSSSTAYMQLKSLTSEDSAVFYCALYSNYGFVYWGQGTLVTVSA
VL: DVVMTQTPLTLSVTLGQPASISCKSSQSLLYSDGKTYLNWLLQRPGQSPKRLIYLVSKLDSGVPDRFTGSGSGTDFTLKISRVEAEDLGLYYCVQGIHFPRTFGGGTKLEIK
notes: Hybridoma monoclonal; also called antibody A
As for B3, the binding result is given as “binds” in test [7], “no binding” in test [1], “no binding” in test [3] and “no binding” in test [4]. Besides, the results for the equilibrium dissociation constant (Kd) in test [5] and in test [6] were 3.89 nM and 6.41 nM, respectively.

B4: rat anti-CLDN-5 antibody R3 (antibody, rat IgG2a, V domains shown)
VH: EVQLVESGGGLVQPGRSLKLSCAASGFTFSDYYMAWVRQAPKKGLEWVASISYEGRNTYYGDSVKGRFTISRDNAKSTLYLQMKSLRSEDTATYYCTRHPRRYFDYWGQGVMVTVSS
VL: DIVMTQSPSSLAVSAGETVTMNCRSSQSLFSSGDQKKFLAWYQQKPGQSPKLLISLASTRESGVPDRFIGSGSGTDFTLTINNMQAEDLAIYYCQQHYDIPYTFGAGTKLEL
notes: Hybridoma monoclonal; also called antibody G
On to B4, for which the binding result in test [7] is listed as “binds”; in test [1], “no binding”; in test [2], “no binding”; in test [3], “no binding”; in test [4] it was “no binding”. For the same molecule, the dissociation constant (Kd) in test [5] came out at 7.19 nM; in test [6], 2.44 nM.

B5: rat anti-CLDN-5 antibody R9 (antibody, rat IgG2b, V domains shown)
VH: QVTLKESGPGILQPSHTLSLTCSFSGFSLNTYGVGVNWIRQPSGKGLEWLASIWWHGKTYINPSLKNRLTVSKDPSNNQAFLEVTNVDPADTATYYCAHARAQLLDYWGQGVMVTVSS
VL: DIVMTQTPSSQAVSAGEKVTMSCKSSQSLLYSGDQKNYLAWYQQKPGQSPKLLIYLTSTRESGVPDRFIGSGSGTDFTLTISSVQAEDLADYYCQQHYSYPLTFGSGTKLEI
notes: Hybridoma monoclonal; also called antibody I
Regarding B5, the binding result is “binds” in test [7], “no binding” in test [2], “no binding” in test [3] and “no binding” in test [4]. The Kd is 3.78 nM in test [5] and 2.75 nM in test [6].

B6: rat anti-CLDN-5 antibody R14 (antibody, rat IgG2a, V domains shown)
VH: QVTLKESGPGILQPSHTLSLTCSFSGFSLSTYGMGVSWIRQPSGKGLEWLASIWWNGRTYTNPSLMSRLTVSKDTSTNQAFLRVTSVETADTATYYCAHTPYDYSNLGWFTYWGQGTLVTVSS
VL: DILMTQTPSSQAVSAGEKVTVSCKSSQSLLYSGDQKSYLAWYQQKPGQSPKLLIYLASTRKSGVPDRFIGSGSGTDFTLTISSVQAEDLADYYCQQHYTYPLTFGSGTKLEI
notes: Hybridoma monoclonal; also called antibody K
Take B6: the binding result in test [7] is on record as “binds”; in test [1], “no binding”; in test [2], “no binding”; in test [3] it was “no binding”; in test [4] it was “no binding”. In addition, the Kd amounted to 4.66 nM in test [5] and 8.42 nM in test [6].

B7: mouse anti-CLDN-5 antibody M11 (antibody, mouse IgG2b, V domains shown)
VH: QVQLKQSGPGLVQPSQSLSITCTVSGFSLIRYGVHWVRQSPGKGLEWLGVKWSGGSTDYNGAFKSRLSISKDNSKSQVFFKMNSLQADDTAIYYCARGLDGYYVPDVWGTGTSVTVS
VL: DIVMTQSHKFMSTSVGDRVSITCKASQDVSTNVAWYQQKPGQSPTLLIYWASTRHTGVPDRFTGSGSGTDYTLTISSVQAEDLALYYCQQHYSTPLTFGAGTKLELRR
notes: Hybridoma monoclonal; also called antibody B
As for B7, the binding result in test [7] was “binds”; in test [1] it was “no binding”; in test [2], “no binding”; in test [3] it was “no binding”; in test [4], “no binding”. Also, the results for the Kd in test [5] and in test [6] were 8.72 nM and 9.68 nM, respectively.

For the origin of these results see patent US20200148765A1 (OSAKA UNIVERSITY, published 2020).
